Source: patent US20180244758A1 (MAPP BIOPHARMACEUTICAL, published 2018)

How the values were obtained:
Assay in all cases: cell-based or functional assay
[1] = target: T1, EBOV GP on rVSV particles (Ebola virus (EBOV), UniProt Q05320 33-676)
T1 sequence: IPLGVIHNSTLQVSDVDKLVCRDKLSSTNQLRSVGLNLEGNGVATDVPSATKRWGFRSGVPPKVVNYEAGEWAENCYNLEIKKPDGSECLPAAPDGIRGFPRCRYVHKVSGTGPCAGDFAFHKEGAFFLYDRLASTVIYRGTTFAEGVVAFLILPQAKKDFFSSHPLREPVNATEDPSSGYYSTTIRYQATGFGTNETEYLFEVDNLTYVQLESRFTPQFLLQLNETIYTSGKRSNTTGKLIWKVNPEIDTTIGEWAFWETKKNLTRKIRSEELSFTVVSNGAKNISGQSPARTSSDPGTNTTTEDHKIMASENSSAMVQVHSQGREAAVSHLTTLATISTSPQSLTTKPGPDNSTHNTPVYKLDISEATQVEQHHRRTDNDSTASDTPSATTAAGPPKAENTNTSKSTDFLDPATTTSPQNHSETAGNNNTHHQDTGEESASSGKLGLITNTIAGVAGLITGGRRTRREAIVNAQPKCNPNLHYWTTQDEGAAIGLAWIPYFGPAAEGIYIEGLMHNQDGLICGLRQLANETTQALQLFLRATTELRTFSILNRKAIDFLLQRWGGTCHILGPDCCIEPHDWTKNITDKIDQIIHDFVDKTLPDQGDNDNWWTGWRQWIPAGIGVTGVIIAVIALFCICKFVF

[2] = target: T2, TAFV GP on VSV pseudotype particles (Tai Forest virus (TAFV), UniProt Q66810 33-676)
T2 sequence: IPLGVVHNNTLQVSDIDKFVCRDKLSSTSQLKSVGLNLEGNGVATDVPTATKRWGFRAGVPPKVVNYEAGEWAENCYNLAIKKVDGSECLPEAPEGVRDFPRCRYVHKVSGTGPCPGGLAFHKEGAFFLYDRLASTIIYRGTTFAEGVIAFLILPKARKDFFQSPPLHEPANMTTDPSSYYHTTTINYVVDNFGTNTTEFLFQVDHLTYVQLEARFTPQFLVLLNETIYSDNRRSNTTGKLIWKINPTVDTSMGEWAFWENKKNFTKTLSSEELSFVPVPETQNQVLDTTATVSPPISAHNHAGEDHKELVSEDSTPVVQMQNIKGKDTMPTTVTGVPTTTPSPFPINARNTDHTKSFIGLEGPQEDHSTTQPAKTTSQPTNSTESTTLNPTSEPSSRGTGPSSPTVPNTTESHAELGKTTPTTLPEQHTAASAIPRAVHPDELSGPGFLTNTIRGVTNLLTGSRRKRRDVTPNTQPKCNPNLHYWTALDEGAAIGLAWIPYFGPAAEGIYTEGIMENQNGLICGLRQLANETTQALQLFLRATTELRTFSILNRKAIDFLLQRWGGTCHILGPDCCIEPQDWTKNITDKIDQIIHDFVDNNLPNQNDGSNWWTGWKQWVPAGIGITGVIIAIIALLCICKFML

[3] = target: T3, SUDV GP on rVSV particles (Sudan virus (SUDV), UniProt Q66814 33-676)
T3 sequence: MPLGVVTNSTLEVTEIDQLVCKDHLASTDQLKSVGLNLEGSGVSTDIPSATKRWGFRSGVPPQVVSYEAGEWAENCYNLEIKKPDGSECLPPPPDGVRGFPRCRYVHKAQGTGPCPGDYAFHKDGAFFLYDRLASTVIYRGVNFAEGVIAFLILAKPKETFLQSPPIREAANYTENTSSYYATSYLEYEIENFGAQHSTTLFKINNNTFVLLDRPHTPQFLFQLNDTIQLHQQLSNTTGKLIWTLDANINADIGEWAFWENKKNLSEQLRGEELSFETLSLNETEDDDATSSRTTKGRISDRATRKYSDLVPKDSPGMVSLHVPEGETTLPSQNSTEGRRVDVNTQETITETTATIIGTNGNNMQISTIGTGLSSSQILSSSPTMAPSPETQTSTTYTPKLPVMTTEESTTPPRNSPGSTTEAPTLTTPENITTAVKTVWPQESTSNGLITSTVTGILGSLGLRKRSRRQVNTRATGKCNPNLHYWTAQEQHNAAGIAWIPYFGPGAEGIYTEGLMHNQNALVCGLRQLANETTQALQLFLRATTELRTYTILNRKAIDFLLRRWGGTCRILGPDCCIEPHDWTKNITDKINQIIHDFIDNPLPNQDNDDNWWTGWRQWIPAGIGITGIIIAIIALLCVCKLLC

[4] = target: BDBV GP on rVSV particles (Bundibugyo virus (BDBV))
[5] = target: T4, RESTV GP on rVSV particles (Reston virus (RESTV), UniProt Q66799 34-677)
T4 sequence: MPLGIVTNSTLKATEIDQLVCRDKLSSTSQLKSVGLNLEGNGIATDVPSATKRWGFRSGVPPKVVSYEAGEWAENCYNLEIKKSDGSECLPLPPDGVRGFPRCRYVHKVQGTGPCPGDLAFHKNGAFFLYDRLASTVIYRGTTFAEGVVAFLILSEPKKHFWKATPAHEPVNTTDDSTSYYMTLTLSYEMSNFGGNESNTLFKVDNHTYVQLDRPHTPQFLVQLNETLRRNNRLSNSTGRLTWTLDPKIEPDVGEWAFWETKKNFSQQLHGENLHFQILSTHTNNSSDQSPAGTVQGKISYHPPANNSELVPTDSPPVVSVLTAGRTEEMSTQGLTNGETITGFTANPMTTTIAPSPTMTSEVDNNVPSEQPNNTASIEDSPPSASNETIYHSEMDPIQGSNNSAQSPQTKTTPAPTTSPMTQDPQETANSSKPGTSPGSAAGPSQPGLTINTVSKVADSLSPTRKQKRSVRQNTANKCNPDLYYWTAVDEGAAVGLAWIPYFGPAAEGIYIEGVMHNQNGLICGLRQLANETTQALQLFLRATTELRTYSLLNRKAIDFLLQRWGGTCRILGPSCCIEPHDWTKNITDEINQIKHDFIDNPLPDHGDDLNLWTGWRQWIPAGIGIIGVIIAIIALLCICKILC

Binder	IC50 (nM), neutralization of rVSV-GP [1] [nM]	IC50 (nM), neutralization of rVSV-GP [2] [nM]	IC50 (nM), neutralization of rVSV-GP [3] [nM]	IC50 (nM), neutralization of rVSV-GP [4] [nM]	IC50 (nM), neutralization of rVSV-GP [5] [nM]
PE-87 D99A (antibody, V domains shown) VH: QVQLVQSGVTLVQPGGSLRVSCAASGFTFSSYAMSWVRQAPGKGLEWVSAISGLGGSTYYADSVKGRFTISRDNSKNTLYLQMNSLRAEDTAVYYCAKAHRVWAAGYHFDYWGQGALVTVSS VL: DIVLTQSPSTLSASVGDRVTITCRASQSISSWLAWYQQKPGEAPKLLISDASSLESGVPSRFSGSGSGTEFTLTISSLQPDDFATYYCQQYYSSPTFGGGTKVEIK	> 500	> 350			
PE-87 Y107A (antibody, V domains shown) VH: QVQLVQSGVTLVQPGGSLRVSCAASGFTFSSYAMSWVRQAPGKGLEWVSAISGLGGSTYYADSVKGRFTISRDNSKNTLYLQMNSLRAEDTAVYYCAKDHRVWAAGAHFDYWGQGALVTVSS VL: DIVLTQSPSTLSASVGDRVTITCRASQSISSWLAWYQQKPGEAPKLLISDASSLESGVPSRFSGSGSGTEFTLTISSLQPDDFATYYCQQYYSSPTFGGGTKVEIK	3	0.8	> 350	0.8	1.3
PE-87 V102A (antibody, V domains shown) VH: QVQLVQSGVTLVQPGGSLRVSCAASGFTFSSYAMSWVRQAPGKGLEWVSAISGLGGSTYYADSVKGRFTISRDNSKNTLYLQMNSLRAEDTAVYYCAKDHRAWAAGYHFDYWGQGALVTVSS VL: DIVLTQSPSTLSASVGDRVTITCRASQSISSWLAWYQQKPGEAPKLLISDASSLESGVPSRFSGSGSGTEFTLTISSLQPDDFATYYCQQYYSSPTFGGGTKVEIK	0.6	1	1.1	0.2	0.2
PE-87 H108A (antibody, V domains shown) VH: QVQLVQSGVTLVQPGGSLRVSCAASGFTFSSYAMSWVRQAPGKGLEWVSAISGLGGSTYYADSVKGRFTISRDNSKNTLYLQMNSLRAEDTAVYYCAKDHRVWAAGYAFDYWGQGALVTVSS VL: DIVLTQSPSTLSASVGDRVTITCRASQSISSWLAWYQQKPGEAPKLLISDASSLESGVPSRFSGSGSGTEFTLTISSLQPDDFATYYCQQYYSSPTFGGGTKVEIK	3.2	2.2	2.1	0.6	0.5
PE-87 R101A (antibody, V domains shown) VH: QVQLVQSGVTLVQPGGSLRVSCAASGFTFSSYAMSWVRQAPGKGLEWVSAISGLGGSTYYADSVKGRFTISRDNSKNTLYLQMNSLRAEDTAVYYCAKDHAVWAAGYHFDYWGQGALVTVSS VL: DIVLTQSPSTLSASVGDRVTITCRASQSISSWLAWYQQKPGEAPKLLISDASSLESGVPSRFSGSGSGTEFTLTISSLQPDDFATYYCQQYYSSPTFGGGTKVEIK	3.2	1.9	1.5	0.4	0.2
PE-87 H100A (antibody, V domains shown) VH: QVQLVQSGVTLVQPGGSLRVSCAASGFTFSSYAMSWVRQAPGKGLEWVSAISGLGGSTYYADSVKGRFTISRDNSKNTLYLQMNSLRAEDTAVYYCAKDARVWAAGYHFDYWGQGALVTVSS VL: DIVLTQSPSTLSASVGDRVTITCRASQSISSWLAWYQQKPGEAPKLLISDASSLESGVPSRFSGSGSGTEFTLTISSLQPDDFATYYCQQYYSSPTFGGGTKVEIK	1	0.8	1	0.4	0.2
PE-87 G106A (antibody, V domains shown) VH: QVQLVQSGVTLVQPGGSLRVSCAASGFTFSSYAMSWVRQAPGKGLEWVSAISGLGGSTYYADSVKGRFTISRDNSKNTLYLQMNSLRAEDTAVYYCAKDHRVWAAAYHFDYWGQGALVTVSS VL: DIVLTQSPSTLSASVGDRVTITCRASQSISSWLAWYQQKPGEAPKLLISDASSLESGVPSRFSGSGSGTEFTLTISSLQPDDFATYYCQQYYSSPTFGGGTKVEIK	0.8	0.8	0.9	0.4	0.2
PE-87 F109A (antibody, V domains shown) VH: QVQLVQSGVTLVQPGGSLRVSCAASGFTFSSYAMSWVRQAPGKGLEWVSAISGLGGSTYYADSVKGRFTISRDNSKNTLYLQMNSLRAEDTAVYYCAKDHRVWAAGYHADYWGQGALVTVSS VL: DIVLTQSPSTLSASVGDRVTITCRASQSISSWLAWYQQKPGEAPKLLISDASSLESGVPSRFSGSGSGTEFTLTISSLQPDDFATYYCQQYYSSPTFGGGTKVEIK	4.2	2.8	2.1	0.3	0.4
PE-87 W103A (antibody, V domains shown) VH: QVQLVQSGVTLVQPGGSLRVSCAASGFTFSSYAMSWVRQAPGKGLEWVSAISGLGGSTYYADSVKGRFTISRDNSKNTLYLQMNSLRAEDTAVYYCAKDHRVAAAGYHFDYWGQGALVTVSS VL: DIVLTQSPSTLSASVGDRVTITCRASQSISSWLAWYQQKPGEAPKLLISDASSLESGVPSRFSGSGSGTEFTLTISSLQPDDFATYYCQQYYSSPTFGGGTKVEIK		> 150		> 200	
